The source of these data is US20190359687A1 (Bayer, published 2019).

Assay [1] deals with T1, human glycophorin A on human red blood cells or red blood cell membranes (human, UniProt P02724 20-150).
T1 construct: whole, on cells; also called hRBC; human RBC membranes
T1 sequence (looked up): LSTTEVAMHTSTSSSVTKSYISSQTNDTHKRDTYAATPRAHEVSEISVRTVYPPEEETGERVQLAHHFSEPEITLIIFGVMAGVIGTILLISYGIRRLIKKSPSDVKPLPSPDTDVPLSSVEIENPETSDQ
The assay can be described thus: SPR (Biacore), Fab on human RBC membranes.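 Note: human RBC membranes captured on an L1 sensor chip, Fab fragments passed over as analyte, binding kinetics read by surface plasmon resonance.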
Description: (§1) Kinetic analysis of the antibody binding to human red blood cell membranes was also performed using surface plasmon resonance (SPR) using a Biacore instrument. In this assay membranes prepared from human red blood cells were attached to a L1 sensor matrix and antibodies were flowed over the RBC membranes.
(§2) The binding kinetics of the affinity matured Fab antibodies was also measured.

In assay [2] the target is T1, human glycophorin A on human red blood …. The assay can be described thus: SPR (Biacore), Fab on human RBC membranes; T½ = 0.69/kd.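 Note: human RBC membranes captured on an L1 sensor chip, Fab fragments passed over as analyte, binding kinetics read by surface plasmon resonance.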
Description: as §1, §2
Assay [3] shares this target. Nature of the assay: SPR (Biacore), Fab on human RBC membranes; * not accurate, instrument limit.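 Note: human RBC membranes captured on an L1 sensor chip, Fab fragments passed over as analyte, binding kinetics read by surface plasmon resonance.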
Description: as §1, §2
Assay [4] addresses T2, human glycophorin A in the red blood cell membrane (human, UniProt P02724 20-150).
T2 construct: whole, on cells; used for intact RBC, isolated RBC membranes and transfected cells; the assay field tells which; also called GPA; hGPA
T2 sequence (looked up): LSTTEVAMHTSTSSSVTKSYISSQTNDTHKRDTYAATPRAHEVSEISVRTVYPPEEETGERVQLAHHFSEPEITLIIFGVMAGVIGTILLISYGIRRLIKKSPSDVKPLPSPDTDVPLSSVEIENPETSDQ
Nature of the assay: FACS, RBC Hu02.
Description: (§3) The binding of the humanized variants to intact red blood cells (RBC) from humans (Hu01 to 03; 3 individuals), Rhesus monkey (Rh01 to 03; 3 individuals) and Cynomolgus monkey (Cy01 to 02; 2 individuals) was measured by fluorescence activated cell sorting (FACS).

The target in assay [5] is T3, Rhesus monkey glycophorin A on Rhesus monkey red blood cells (Rhesus monkey, UniProt A0A1D5Q349 20-150).
T3 construct: whole, on cells; also called Rhesus RBC; monkey GPA
T3 sequence: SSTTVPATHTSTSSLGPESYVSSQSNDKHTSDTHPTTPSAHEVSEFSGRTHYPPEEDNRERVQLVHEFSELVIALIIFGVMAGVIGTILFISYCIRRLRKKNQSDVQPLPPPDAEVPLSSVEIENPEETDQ
The assay can be described thus: FACS, RBC Rh01.
Description: as §3

Assay [6] deals with T2, human glycophorin A in the red blood …. The assay can be described thus: FACS, RBC Hu03.
Description: as §3
The target in assay [7] is T3, Rhesus monkey glycophorin A on Rhesus …. Nature of the assay: FACS, RBC Rh03.
Description: as §3
Assay [8] deals with T4, Cynomolgus monkey glycophorin A on Cynomolgus monkey red blood cells (Cynomolgus monkey).
T4 construct: whole, on cells; also called Cyno RBC; Cyno GPA
Nature of the assay: FACS, RBC Cy01.
Description: as §3

For assay [9], the target named is T2, human glycophorin A in the red blood …. Nature of the assay: FACS, RBC Hu01.
Description: as §3
Assay [10] has as its target T5, purified human glycophorin A protein (Sigma, cat # G5017) (human, UniProt P02724 20-150).
T5 construct: mature; also called Sigma hGPA; Sigma GPA
T5 sequence (looked up): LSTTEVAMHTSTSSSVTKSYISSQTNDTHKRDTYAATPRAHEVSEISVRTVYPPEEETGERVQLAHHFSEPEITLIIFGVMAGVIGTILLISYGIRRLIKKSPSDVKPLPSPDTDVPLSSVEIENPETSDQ
The assay can be described thus: ELISA, IgG.

Assay [11] deals with T3, Rhesus monkey glycophorin A on Rhesus …. The assay can be described thus: FACS, RBC Rh02.
The target in assay [12] is T4, Cynomolgus monkey glycophorin A on …. Nature of the assay: FACS, RBC Cy02.
Description: as §3

B1: TPP-7776, affinity matured 6C12 Fab (Fab, V domains shown)
VH: EVQLVQSGAEVKKPGASVKVSCKASGYTFTTYAIHWVRQAPGQGLEWMGYINPSSGYTRYNPKFKGRVTMTRDKSTSTAYMELRSLRSDDTAVYYCQTGTRDYWGQGTTVTVSS
VL: DIQLTQSPSFLSASVGDRVTITCRASSSVRYIYWFQQKPGKAPKLLIYATSTLRSGVPSRFSGSGSGTEYTLTISSLQPEDFATYYCHQRNSFPYTFGQGTKLEIK
notes: Tested as Fab
In [1], B1 displayed a Kd of 0.0829 nM and a dissociation rate constant (koff) of 0.00097 s⁻¹. In addition, the “Estimated T½” value in assay [2] is 12 min. In [3], this molecule registered a kon of 1.17e+07 M⁻¹ s⁻¹.

B2: TPP-7788, affinity matured 6C12 Fab (Fab, V domains shown)
VH: EVQLVQSGAEVKKPGASVKVSCKASGYTFTTYTIHWVRQAPGQGLEWMGYINPKSGWTRYNPKFKGRVTMTRDKSTSTAYMELRSLRSDDTAVYYCQTGTRDYWGQGTTVTVSS
VL: DIQLTQSPSFLSASVGDRVTITCRASSSVSYIYWFQQKPGKAPKLLIYATSFRQSGVPSRFSGSGSGTEYTLTISSLQPEDFATYYCHQRNSFPYTFGQGTKLEIK
notes: Tested as Fab
For the molecule B2, in assay [1], the Kd is 0.136 nM, the off-rate constant (koff) was found to be 0.000413 s⁻¹ and the kon was 3.03e+06 M⁻¹ s⁻¹. In addition, the “Estimated T½” value in assay [2] was 28 min.

B3: Hu6C12-23 (antibody, V domains shown)
VH: EVQLVQSGAEVKKPGASVKVSCKASGYTFTTYTIHWVRQAPGQGLEWMGYINPSSDYTRYNPKFKDRVTLTTDTSTSTAYMELRSLRSDDTAVYYCQTGTRDYWGQGTTVTVSS
VL: DIQLTQSPSFLSASVGDRVTITCSAASSVSYIYWFQQKPGKAPKLLIYSTSTLPSGVPSRFSGSGSGTEYTLTISSLQPEDFATYYCHQRNSFPFTFGQGTKLEIK
notes: IgG format; VH.1f + Vk.1b
In the case of B3, the fluorescence intensity in assay [4] is 1300; in assay [5], 1710; in [6], 1460; in [7], 1700; in [8], 1140; in [9], 1680. Further, the results for the fluorescence intensity in assay [11] and in assay [12] were 1680 and 1320, respectively. In [10], this molecule came in with an EC50 of 0.374 nM.

B4: Hu6C12-19 (antibody, V domains shown)
VH: EVQLVQSGAEVKKPGASVKVSCKASGYTFTTYTIHWVRQAPGQGLEWMGYINPSSDYTRYNPKFKDRVTMTTDTSTSTAYMELRSLRSDDTAVYYCATGTRDYWGQGTTVTVSS
VL: DIQLTQSPSFLSASVGDRVTITCSAASSVSYIYWFQQKPGKAPKLLIYSTSTLPSGVPSRFSGSGSGTEYTLTISSLQPEDFATYYCHQRNSFPFTFGQGTKLEIK
notes: IgG format; VH.1b + Vk.1b
As for B4, the fluorescence intensity is 1270 in assay [4]; 1620 in [5]; 1440 in assay [6]; 1520 in assay [7]; 1040 in assay [8]; 1630 in assay [9]. For the same molecule, the fluorescence intensity is 1510 in assay [11] and 1240 in [12]. The EC50 in assay [10] was found to be 0.876 nM.

B5: Hu6C12-7 (antibody, V domains shown)
VH: EVQLVQSGAEVKKPGASVKVSCKASGYTFTTYTIHWVRQAPGQGLEWIGYINPSSDYTRYNPKFKDRVTLTTDKSTSTAYMELRSLRSDDTAVYYCQTGTRDYWGQGTTVTVSS
VL: DIQLTQSPSFLSASVGDRVTITCSAASSVSYIYWYQQKPGKAPKLLIYSTSTLPSGVPSRFSGSGSGTEFTLTISSLQPEDFATYYCHQRNSFPFTFGQGTKLEIK
notes: IgG format; VH.1g + Vk.1
As to B5, the fluorescence intensity in assay [4] came out at 945; in assay [5] it was 2060; in assay [6], 1100; in assay [7] it was 1920; in assay [8], 1360; in [9] it was 1230. In addition, the fluorescence intensity in [11] worked out at 1940; in [12], 1430. The EC50 in [10] was determined as 1.78 nM.

B6: TPP-7777, affinity matured 6C12 Fab (Fab, V domains shown)
VH: EVQLVQSGAEVKKPGASVKVSCKASGYTFTTYTIHWVRQAPGQGLEWMGYINPSSGWTRYNPKFKGRVTMTRDKSTSTAYMELRSLRSDDTAVYYCWTGRRDYWGQGTTVTVSS
VL: DIQLTQSPSFLSASVGDRVTITCRASSSVSYIYWFQQKPGKAPKLLIYATSTRQSGVPSRFSGSGSGTEYTLTISSLQPEDFATYYCHQRNSFPYTFGQGTKLEIK
notes: Tested as Fab
In assay [1], B6 had a Kd of 0.0499 nM, a koff of 0.000371 s⁻¹ and a kon of 7.44e+06 M⁻¹ s⁻¹. Besides, the “Estimated T½” value in assay [2] is 31 min.

B7: Hu6C12-16 (antibody, V domains shown)
VH: EVQLVQSGAEVKKPGASVKVSCKASGYTFTTYTIHWVRQAPGQGLEWIGYINPSSDYTRYNPKFKDRVTLTTDKSTSTAYMELRSLRSDDTAVYYCQTGTRDYWGQGTTVTVSS
VL: DIQLTQSPSFLSASVGDRVTITCSAASSVSYIYWYQQKPGKAPKLLIYSTSTLPSGVPSRFSGSGSGTEYTLTISSLQPEDFATYYCHQRNSFPFTFGQGTKLEIK
notes: IgG format; VH.1g + Vk.1a
Regarding B7, the fluorescence intensity came out at 637 in [4]; 2000 in assay [5]; 786 in [6]; 1870 in assay [7]; 1270 in assay [8]; 895 in assay [9]. In addition, the figures for the fluorescence intensity in assay [11] and in [12] were 1860 and 1360, respectively. For the same molecule, a half-maximal effect in assay [10] (EC50) was put at 4.8 nM.

B8: Hu6C12-20 (antibody, V domains shown)
VH: EVQLVQSGAEVKKPGASVKVSCKASGYTFTTYTIHWVRQAPGQGLEWMGYINPSSDYTRYNPKFKDRVTMTTDTSTSTAYMELRSLRSDDTAVYYCQTGTRDYWGQGTTVTVSS
VL: DIQLTQSPSFLSASVGDRVTITCSAASSVSYIYWFQQKPGKAPKLLIYSTSTLPSGVPSRFSGSGSGTEYTLTISSLQPEDFATYYCHQRNSFPFTFGQGTKLEIK
notes: IgG format; VH.1c + Vk.1b
On to B8, for which the fluorescence intensity stood at 1300 in [4]; 1670 in assay [5]; 1460 in assay [6]; 1550 in [7]; 1070 in assay [8]; 1670 in assay [9]. For the same molecule, the values for the fluorescence intensity in assay [11] and in [12] were 1620 and 1250, respectively. The EC50 in [10] amounted to 0.393 nM.

B9: Hu6C12-22 (antibody, V domains shown)
VH: EVQLVQSGAEVKKPGASVKVSCKASGYTFTTYTIHWVRQAPGQGLEWMGYINPSSDYTRYNPKFKDRVTLTTDTSTSTAYMELRSLRSDDTAVYYCATGTRDYWGQGTTVTVSS
VL: DIQLTQSPSFLSASVGDRVTITCSAASSVSYIYWFQQKPGKAPKLLIYSTSTLPSGVPSRFSGSGSGTEYTLTISSLQPEDFATYYCHQRNSFPFTFGQGTKLEIK
notes: IgG format; VH.1e + Vk.1b
Consider B9, for which the fluorescence intensity was 1170 in assay [4]; 1530 in [5]; 1330 in [6]; 1450 in assay [7]; 991 in [8]; 1570 in assay [9]. Moreover, the fluorescence intensity in assay [11] worked out at 1490; in assay [12], 1170. Also, in [10], the response was half-maximal at 0.886 nM (EC50).

B10: TPP-7787, affinity matured 6C12 Fab (Fab, V domains shown)
VH: EVQLVQSGAEVKKPGASVKVSCKASGYTFTTYAIHWVRQAPGQGLEWMGYINPSSGYTRYNPKFKGRVTMTRDKSTSTAYMELRSLRSDDTAVYYCWTGTRDYWGQGTTVTVSS
VL: DIQLTQSPSFLSASVGDRVTITCRASSSVSYIYWFQQKPGKAPKLLIYATSTRQSGVPSRFSGSGSGTEYTLTISSLQPEDFATYYCHQRNSFPYTFGQGTKLEIK
notes: Tested as Fab
Consider B10, for which, in [1], the Kd is 0.0222 nM, the koff amounted to 0.000139 s⁻¹ and the kon worked out at 6.25e+06 M⁻¹ s⁻¹. Moreover, the “Estimated T½” value in [2] is 83 min.

B11: Hu6C12-24 (antibody, V domains shown)
VH: EVQLVQSGAEVKKPGASVKVSCKASGYTFTTYTIHWVRQAPGQGLEWIGYINPSSDYTRYNPKFKDRVTLTTDKSTSTAYMELRSLRSDDTAVYYCQTGTRDYWGQGTTVTVSS
VL: DIQLTQSPSFLSASVGDRVTITCSAASSVSYIYWFQQKPGKAPKLLIYSTSTLPSGVPSRFSGSGSGTEYTLTISSLQPEDFATYYCHQRNSFPFTFGQGTKLEIK
notes: IgG format; VH.1g + Vk.1b
On to B11, for which the fluorescence intensity was found to be 1850 in [4]; 2330 in assay [5]; 2100 in [6]; 2370 in assay [7]; 1660 in assay [8]; 2250 in assay [9]. Moreover, the fluorescence intensity in assay [11] turned out to be 2540; in assay [12], 1770. In addition, it took 0.282 nM to reach a half-maximal effect in [10] (EC50).
